Assay results as given in US8450280B2, “Activation of peptide prodrugs by hK2” (GenbSpera, Inc., priority 1999, dated 2013).

B1: ACT: α1-antichymotrypsin purified from human blood plasma (protein)
chain: HPNSPLDEENLTQENQDRGTHVDLGLASANVDFAFSLYKQLVLKAPDKNVIFSPLSISTALAFLSLGAHNTTLTEILKGLKFNLTETSEAEIHQSFQHLLRTLNQSSDELQLSMGNAMFVKEQLSLLDRFTEDAKRLYGSEAFATDFQDSAAAKKLINDYVKNGTRGKITDLIKDLDSQTMMVLVNYIFFKAKWEMPFDPQDTHQSRFYLSKKKWVMVPMMSLHHLTIPYFRDEELSCTVVELKYTGNASALFILPDQDKMEEVEAMLLPETLKRWRDSLEFREIGELYLPKFSISRDYNLNDILLQLGIEEAFTSKADLSGITGARNLAVSQVVHKAVLDVFEEGTEASAATAVKITLLSALVETRTIVRFNRPFLMIIVPTDTQNIFFMSKVTNPKQA
B2: SLPI: protease inhibitor present in the prostate (protein)
chain: SGKSFKAGVCPPKKSAQCLRYKKPECQSDWQCPGKKRCCPDTCGIKCLDPVDTPNPTRRKPGKCPVTYGQCLMLNPPNFCEMDGQCKRDLKCCMGMCGKSCVSPVKA
B3: PCl: protein C inhibitor (PCI), plasma protease inhibitor (serpin) (protein)
chain: HRHHPREMKKRVEDLHVGATVAPSSRRDFTFDLYRALASAAPSQSIFFSPVSISMSLAMLSLGAGSSTKMQILEGLGLNLQKSSEKELHRGFQQLLQELNQPRDGFQLSLGNALFTDLVVDLQDTFVSAMKTLYLADTFPTNFRDSAGAMKQINDYVAKQTKGKIVDLLKNLDSNAVVIMVNYIFFKAKWETSFNHKGTQEQDFYVTSETVVRVPMMSREDQYHYLLDRNLSCRVVGVPYQGNATALFILPSEGKMQQVENGLSEKTLRKWLKMFKKRQLELYLPKFSIEGSYQLEKVLPSLGISNVFTSHADLSGISNHSNIQVSEMVHKAVVEVDESGTRAAAATGTIFTFRSARLNSQRLVFNRPFLMFIVDNNILFLGKVNRP

Biological target: T1, hK2 (Homo sapiens, UniProt P20151)
T1 construct: made in house
T1 sequence (P20151 25-261): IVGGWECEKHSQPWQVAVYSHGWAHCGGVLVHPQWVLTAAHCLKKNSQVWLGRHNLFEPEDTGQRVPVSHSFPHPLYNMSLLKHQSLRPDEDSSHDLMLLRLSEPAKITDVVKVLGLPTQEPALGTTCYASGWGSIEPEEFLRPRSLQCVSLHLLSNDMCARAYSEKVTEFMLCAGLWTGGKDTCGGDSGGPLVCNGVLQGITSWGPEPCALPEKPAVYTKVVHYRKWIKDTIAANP
Test: Inhibition of hK2 by protease inhibitors (substrate H-Pro-Phe-Arg-AMC)
Format: biochemical
Conditions: for Activity (%) of hK2, percentage of inhibitor-free control: 10 minutes of incubation, 8.3 nM hK2, 90 μM substrate
Procedure: Activity of hK2 (1.6 pmol) was monitored using the substrate H-Pro-Phe-Arg-AMC (SEQ ID NO: 55) (90 μM). Inhibitors, at commonly used concentrations, and hK2 (8.3 nM) were mixed and proteolysis of 90 μM H-Pro-Phe-Arg-AMC (SEQ ID NO: 55) was followed up to 20 minutes, starting directly or 10 minutes after mixing the enzyme with various inhibitors. Inhibition was evaluated by comparison with […] controls.
The proteolytic activity is expressed in percentage of inhibitor-free control after 10 minutes of incubation.
Therefore, PPACK can be used to obtain fast irreversible inhibition of hK2.

| Molecule | inhibition of the hK2 activity (in words) (100-fold molar excess, 20 minute measurement time) | Activity (%) of hK2, percentage of inhibitor-free control (inhibitor 0.8 μM) | inhibition of hK2 (in words) (8 nM hK2, 90 μM substrate) | Activity (%) of hK2, percentage of inhibitor-free control (inhibitor 0.08 μM) | Activity (%) of hK2, percentage of inhibitor-free control (inhibitor 4 μM) | Activity (%) of hK2, percentage of inhibitor-free control (inhibitor 0.016 μM) |
| --- | --- | --- | --- | --- | --- | --- |
| B1 | no inhibition | 100% |  |  |  |  |
| B2 |  |  | inhibited hK2 weakly | 92% | 35% |  |
| B3 |  |  |  | 0% |  | 50% |
